Here are results for 2 molecules from patent US20250198990A1 (Stanford University, published 2025).

For series [1], the target named is Wild-type mouse LAG-3 domains 1 and 2 (D1D2) displayed on yeast as N-terminal fusion to Aga2 (mouse; Saccharomyces cerevisiae) (UniProt Q61790). Put plainly: yeast surface display titration, flow cytometry; monomeric D1D2 on yeast. On the technique in general: In flow cytometry, cells or beads pass a laser one at a time.
Series [2] deals with the molecule itself. The series can be described thus: flow-FRET in Expi293 cells; self-association.
Experimental: Flow cytometry-based Förster resonance energy transfer (flow-FRET) assays have been utilized for live cell detection of proximal protein associations at distances <100 Å and was thus used to assess LAG-3 dimerization.
Expi293F cells (ThermoFisher Scientific) were transfected with a CFP:YFP:PEI ratio of 0.5:0.5:3 in a 24-well plate at 37° C. in 8% CO₂. Cells were analyzed after 36 hours using a BD LSRII flow cytometer. The 407 nm violet laser was used to excite CFP and the 488 nm blue laser was used to excite YFP. CFP was detected using a 450/50 bandpass filter after excitation with the violet laser and YFP was detected using a 530/30 bandpass filter after excitation with the blue laser.

What is called Kd is a measure of binding affinity in units of concentration. Higher therefore signals lower affinity. Molecule C9B7W anti-mouse LAG-3 antibody showed a Kd in series [1] of 0.136 nM.

B1: Full-length mouse LAG-3 fused to CFP or YFP, on Expi293F cells (receptor, UniProt Q61790 24-521, looked up)
chain: GPGKELPVVWAQEGAPVHLPCSLKSPNLDPNFLRRGGVIWQHQPDSGQPTPIPALDLHQGMPSPRQPAPGRYTVLSVAPGGLRSGRQPLHPHVQLEERGLQRGDFSLWLRPALRTDAGEYHATVRLPNRALSCSLRLRVGQASMIASPSGVLKLSDWVLLNCSFSRPDRPVSVHWFQGQNRVPVYNSPRHFLAETFLLLPQVSPLDSGTWGCVLTYRDGFNVSITYNLKVLGLEPVAPLTVYAAEGSRVELPCHLPPGVGTPSLLIAKWTPPGGGPELPVAGKSGNFTLHLEAVGLAQAGTYTCSIHLQGQQLNATVTLAVITVTPKSFGLPGSRGKLLCEVTPASGKERFVWRPLNNLSRSCPGPVLEIQEARLLAERWQCQLYEGQRLLGATVYAAESSSGAHSARRISGDLKGGHLVLVLILGALSLFLLVAGAFGFHWWRKQLLLRRFSALEHGIQPFPAQRKIEELERELETEMGQEPEPEPEPQLEPEPRQL
notes: whole, on cells; Two plasmids, one CFP and one YFP fusion, co-transfected for flow-FRET; also called mLAG-3^CFP; mLAG-3^YFP; not shown: CFP or YFP from pECFP / pEYFP plasmids
As to B1, the binding result in series [2] is “binds”.
